Drawing on paper PMC11282955, this text covers Kd for 15 substances.

The experiment has as its target human angiotensin-converting enzyme 2 (hACE2) (UniProt Q9BYF1). Put plainly: SPR. Particulars: parent: est. 1.5 nM; read off a plot.

For the substance “BA.2.86 spike receptor-binding domain (RBD) D450N”, the Kd turned out to be 520 pM. With “BA.2.86 spike receptor-binding domain (RBD) H445V”, the Kd was 460 pM.

In the case of “BA.2.86 spike receptor-binding domain (RBD) H505Y”, the equilibrium dissociation constant (Kd) is 580 pM. Regarding “BA.2.86 spike receptor-binding domain (RBD) K403R”, the Kd was found to be 1000 pM. Regarding “BA.2.86 spike receptor-binding domain (RBD) K481N”, the dissociation constant (Kd) was 660 pM. With “BA.2.86 spike receptor-binding domain (RBD) K484A” the figure was 1200 pM. For “BA.2.86 spike receptor-binding domain (RBD) L455F; F456L”, the Kd is 800 pM. On to “BA.2.86 spike receptor-binding domain (RBD) L455S”, for which the Kd worked out at 4300 pM. In the case of “BA.2.86 spike receptor-binding domain (RBD) N354Q” it was 1600 pM.

For the substance “BA.2.86 spike receptor-binding domain (RBD) N417K”, the dissociation constant Kd is 620 pM. Turning to “BA.2.86 spike receptor-binding domain (RBD) N417K; H505Y”, the Kd turned out to be 270 pM.

On to “BA.2.86 spike receptor-binding domain (RBD) N417K; H505Y; L455F; F456L”, for which the dissociation constant (Kd) amounted to 530 pM. As to “BA.2.86 spike receptor-binding domain (RBD) P486F”, the dissociation constant (Kd) turned out to be 390 pM. Regarding “BA.2.86 spike receptor-binding domain (RBD) W452L”, the equilibrium dissociation constant (Kd) was 580 pM. For the substance “BA.2.86 spike receptor-binding domain (RBD) ins483V”, the dissociation constant (Kd) was determined as 880 pM.
